Laboratory results from patent US20030208060A1 (published 2003).

B1: MBP200 (membrane binding protein of ~200 kDa; human monocyte-macrophage apoB48 receptor, apoB48R) (receptor)
chain: MDFLRLYLPGLHQALRGALDSLGTFVSYLLGDAVPTVEREAQAAEELGVVAVGKTGKIVEEEAQEDLEGLRGSQNEGAGRLRGPGDDRRHEVGSSAVEQTWGWGDGSSHGSQAERQDSGAGETAKAARCQEPSAHLEARKKSKAGSGACQDRSGQAQERQESHEQEVNREERLRSWEQEEEEEEVRAREPGMARGAESEWTWHGETEGKAGAVGPKAAGDNREMEQGVREADAGETEEPGAEGAGKGEEVVVVEKACESTRAWGTWGPGAEPEDWGILGREEARTTPGREEARAILDGEEARTISGGEEAETASGGEEAETASGGEEAGTASGGEEAGISSGGEAGTASGGEEAGTASGGDEAWTTSGKEEADLLGVRQTQYGAVPGERLLEATGKVWVLEEEGDEEREAEVSPFPKQAQVLGTERTEEAAESQTAGREAVGGQEAGESFEGQVDLRGKEAEMRQDLGIRADRAKMEELVQAEEAQEERGSSRDPVAELPSDGEAEGTADLEATPEARPEEELTGEESEAAQTSCGLLGVEWGGLTHSVTKGQGPELMGGAQTPTKQPEEREAGEVELMGVLALSKEEQERSLEAGPRHAGSVKPEASEAFPGAWENRTRKDMERGNTQEDAADGEQREEEETAGGQTLAAEAEGDRESELSEVPEAGGEGLTTQDAGCGTEEGEASVSENQELDGSTGADAGPCPSLGEAYARETEDEEAEADRTSRRGWRLQAVAVGLPDREDAQTGSVAAGIMGGDVVPHISAAGAGEALEGALGQGWDSKEKEEAAAGEHAGGQEFGLEGSAEEEVTGRGSQVEAFESREGGPWGGRVEAEESAGAEDSCGLDPAGSQTARAEGMGAMVEAGGLLEKWTLLEEEAVGWQEREQREDSEGRCGDYHPEGEAPRLLDAEGLMVTGGRRAEAKETEPESLEHVRGQEEQPTHQAPAEAAPESVGEAETAEAMGSARGGAANSWSEAPLPGSLLDVSVPRSRVHLSRSSSQRRSRPSFRRTPAWEQQEEPPAPNPPEEELSAPEQRPLQLEEPLEPSPLRHDGTPVPARRRPLGHGFGLAHPGMMQELQARLGRPKPQ
notes: Native protein in Triton X-114 aqueous-phase extracts of THP-1 monocytes, run on non-reducing SDS-PAGE and blotted to nitrocellulose; Apparent Mr ~200 kD against ~114.8 kD deduced; also called TGRLP receptor; TGRLP/ApoB receptor

Columns and labels:
[1] = biological target: T1, intermediate density lipoprotein (human, UniProt P04114 28-4563); test: ligand blot; the binding is of lower affinity
T1 construct: Lipoprotein particle; also called IDL

[2] = biological target: T2, normal VLDL Sf100-400 from a subject with normal plasma TG levels (human, UniProt P04114 28-4563); test: ligand blot; the binding is of lower affinity
T2 construct: Lipoprotein particle; also called N-V1; normal very low density lipoprotein

[3] = biological target: T3, low density lipoprotein (LDL) (human, UniProt P04114 28-4563); test: ligand blot; lower affinity than HTG TGRLP and chylomicrons
T3 construct: Lipoprotein particle

[4] = biological target: the molecule itself; test: SDS-PAGE of the purified fusion protein
[5] = biological target: the molecule itself; test: SDS-PAGE of the purified GST fusion protein
[6] = biological target: B1; test: ligand blot
Experimental: The ligand blotting assay was performed essentially as described (Gianturco et al., 1988, 1994; Ramprasad et al., 1995) with minor modifications. Aliquots of the detergent extracts were electrophoresed on 5% polyacrylamide gels containing 0.1% SDS (Laemmli, 1970) under non-reducing conditions in a Bio-Rad minigel apparatus and electrotransferred to nitrocellulose. After blocking for 1 hour with 5% Carnation nonfat dry milk in ligand buffer (50 mM Tris-HCl (pH 8), 90 mM NaCl and 2 mM CaCl₂), the blots were rinsed with 0.5% milk in ligand buffer before incubation with lipoproteins in ligand buffer containing 0.05% milk (Gianturco et al., 1988).
For competitive ligand blots, TGRLP were biotinylated as described (O'Shannessy et al., 1984) and dialyzed extensively before use. […] After extensive washing, bound lipoprotein was detected by incubation with streptavidin linked to alkaline phosphatase, followed by substrates BCIP and NBT (Bio-Rad Laboratories, CA). In some experiments without antibodies as potential competitors, native, unlabeled TGRLP were used as the ligand, and bound TGRLP was detected with anti-apoB followed by alkaline phosphatase-linked secondary antibody. […]

T3 sequence (P04114 28-4563 limits assumed): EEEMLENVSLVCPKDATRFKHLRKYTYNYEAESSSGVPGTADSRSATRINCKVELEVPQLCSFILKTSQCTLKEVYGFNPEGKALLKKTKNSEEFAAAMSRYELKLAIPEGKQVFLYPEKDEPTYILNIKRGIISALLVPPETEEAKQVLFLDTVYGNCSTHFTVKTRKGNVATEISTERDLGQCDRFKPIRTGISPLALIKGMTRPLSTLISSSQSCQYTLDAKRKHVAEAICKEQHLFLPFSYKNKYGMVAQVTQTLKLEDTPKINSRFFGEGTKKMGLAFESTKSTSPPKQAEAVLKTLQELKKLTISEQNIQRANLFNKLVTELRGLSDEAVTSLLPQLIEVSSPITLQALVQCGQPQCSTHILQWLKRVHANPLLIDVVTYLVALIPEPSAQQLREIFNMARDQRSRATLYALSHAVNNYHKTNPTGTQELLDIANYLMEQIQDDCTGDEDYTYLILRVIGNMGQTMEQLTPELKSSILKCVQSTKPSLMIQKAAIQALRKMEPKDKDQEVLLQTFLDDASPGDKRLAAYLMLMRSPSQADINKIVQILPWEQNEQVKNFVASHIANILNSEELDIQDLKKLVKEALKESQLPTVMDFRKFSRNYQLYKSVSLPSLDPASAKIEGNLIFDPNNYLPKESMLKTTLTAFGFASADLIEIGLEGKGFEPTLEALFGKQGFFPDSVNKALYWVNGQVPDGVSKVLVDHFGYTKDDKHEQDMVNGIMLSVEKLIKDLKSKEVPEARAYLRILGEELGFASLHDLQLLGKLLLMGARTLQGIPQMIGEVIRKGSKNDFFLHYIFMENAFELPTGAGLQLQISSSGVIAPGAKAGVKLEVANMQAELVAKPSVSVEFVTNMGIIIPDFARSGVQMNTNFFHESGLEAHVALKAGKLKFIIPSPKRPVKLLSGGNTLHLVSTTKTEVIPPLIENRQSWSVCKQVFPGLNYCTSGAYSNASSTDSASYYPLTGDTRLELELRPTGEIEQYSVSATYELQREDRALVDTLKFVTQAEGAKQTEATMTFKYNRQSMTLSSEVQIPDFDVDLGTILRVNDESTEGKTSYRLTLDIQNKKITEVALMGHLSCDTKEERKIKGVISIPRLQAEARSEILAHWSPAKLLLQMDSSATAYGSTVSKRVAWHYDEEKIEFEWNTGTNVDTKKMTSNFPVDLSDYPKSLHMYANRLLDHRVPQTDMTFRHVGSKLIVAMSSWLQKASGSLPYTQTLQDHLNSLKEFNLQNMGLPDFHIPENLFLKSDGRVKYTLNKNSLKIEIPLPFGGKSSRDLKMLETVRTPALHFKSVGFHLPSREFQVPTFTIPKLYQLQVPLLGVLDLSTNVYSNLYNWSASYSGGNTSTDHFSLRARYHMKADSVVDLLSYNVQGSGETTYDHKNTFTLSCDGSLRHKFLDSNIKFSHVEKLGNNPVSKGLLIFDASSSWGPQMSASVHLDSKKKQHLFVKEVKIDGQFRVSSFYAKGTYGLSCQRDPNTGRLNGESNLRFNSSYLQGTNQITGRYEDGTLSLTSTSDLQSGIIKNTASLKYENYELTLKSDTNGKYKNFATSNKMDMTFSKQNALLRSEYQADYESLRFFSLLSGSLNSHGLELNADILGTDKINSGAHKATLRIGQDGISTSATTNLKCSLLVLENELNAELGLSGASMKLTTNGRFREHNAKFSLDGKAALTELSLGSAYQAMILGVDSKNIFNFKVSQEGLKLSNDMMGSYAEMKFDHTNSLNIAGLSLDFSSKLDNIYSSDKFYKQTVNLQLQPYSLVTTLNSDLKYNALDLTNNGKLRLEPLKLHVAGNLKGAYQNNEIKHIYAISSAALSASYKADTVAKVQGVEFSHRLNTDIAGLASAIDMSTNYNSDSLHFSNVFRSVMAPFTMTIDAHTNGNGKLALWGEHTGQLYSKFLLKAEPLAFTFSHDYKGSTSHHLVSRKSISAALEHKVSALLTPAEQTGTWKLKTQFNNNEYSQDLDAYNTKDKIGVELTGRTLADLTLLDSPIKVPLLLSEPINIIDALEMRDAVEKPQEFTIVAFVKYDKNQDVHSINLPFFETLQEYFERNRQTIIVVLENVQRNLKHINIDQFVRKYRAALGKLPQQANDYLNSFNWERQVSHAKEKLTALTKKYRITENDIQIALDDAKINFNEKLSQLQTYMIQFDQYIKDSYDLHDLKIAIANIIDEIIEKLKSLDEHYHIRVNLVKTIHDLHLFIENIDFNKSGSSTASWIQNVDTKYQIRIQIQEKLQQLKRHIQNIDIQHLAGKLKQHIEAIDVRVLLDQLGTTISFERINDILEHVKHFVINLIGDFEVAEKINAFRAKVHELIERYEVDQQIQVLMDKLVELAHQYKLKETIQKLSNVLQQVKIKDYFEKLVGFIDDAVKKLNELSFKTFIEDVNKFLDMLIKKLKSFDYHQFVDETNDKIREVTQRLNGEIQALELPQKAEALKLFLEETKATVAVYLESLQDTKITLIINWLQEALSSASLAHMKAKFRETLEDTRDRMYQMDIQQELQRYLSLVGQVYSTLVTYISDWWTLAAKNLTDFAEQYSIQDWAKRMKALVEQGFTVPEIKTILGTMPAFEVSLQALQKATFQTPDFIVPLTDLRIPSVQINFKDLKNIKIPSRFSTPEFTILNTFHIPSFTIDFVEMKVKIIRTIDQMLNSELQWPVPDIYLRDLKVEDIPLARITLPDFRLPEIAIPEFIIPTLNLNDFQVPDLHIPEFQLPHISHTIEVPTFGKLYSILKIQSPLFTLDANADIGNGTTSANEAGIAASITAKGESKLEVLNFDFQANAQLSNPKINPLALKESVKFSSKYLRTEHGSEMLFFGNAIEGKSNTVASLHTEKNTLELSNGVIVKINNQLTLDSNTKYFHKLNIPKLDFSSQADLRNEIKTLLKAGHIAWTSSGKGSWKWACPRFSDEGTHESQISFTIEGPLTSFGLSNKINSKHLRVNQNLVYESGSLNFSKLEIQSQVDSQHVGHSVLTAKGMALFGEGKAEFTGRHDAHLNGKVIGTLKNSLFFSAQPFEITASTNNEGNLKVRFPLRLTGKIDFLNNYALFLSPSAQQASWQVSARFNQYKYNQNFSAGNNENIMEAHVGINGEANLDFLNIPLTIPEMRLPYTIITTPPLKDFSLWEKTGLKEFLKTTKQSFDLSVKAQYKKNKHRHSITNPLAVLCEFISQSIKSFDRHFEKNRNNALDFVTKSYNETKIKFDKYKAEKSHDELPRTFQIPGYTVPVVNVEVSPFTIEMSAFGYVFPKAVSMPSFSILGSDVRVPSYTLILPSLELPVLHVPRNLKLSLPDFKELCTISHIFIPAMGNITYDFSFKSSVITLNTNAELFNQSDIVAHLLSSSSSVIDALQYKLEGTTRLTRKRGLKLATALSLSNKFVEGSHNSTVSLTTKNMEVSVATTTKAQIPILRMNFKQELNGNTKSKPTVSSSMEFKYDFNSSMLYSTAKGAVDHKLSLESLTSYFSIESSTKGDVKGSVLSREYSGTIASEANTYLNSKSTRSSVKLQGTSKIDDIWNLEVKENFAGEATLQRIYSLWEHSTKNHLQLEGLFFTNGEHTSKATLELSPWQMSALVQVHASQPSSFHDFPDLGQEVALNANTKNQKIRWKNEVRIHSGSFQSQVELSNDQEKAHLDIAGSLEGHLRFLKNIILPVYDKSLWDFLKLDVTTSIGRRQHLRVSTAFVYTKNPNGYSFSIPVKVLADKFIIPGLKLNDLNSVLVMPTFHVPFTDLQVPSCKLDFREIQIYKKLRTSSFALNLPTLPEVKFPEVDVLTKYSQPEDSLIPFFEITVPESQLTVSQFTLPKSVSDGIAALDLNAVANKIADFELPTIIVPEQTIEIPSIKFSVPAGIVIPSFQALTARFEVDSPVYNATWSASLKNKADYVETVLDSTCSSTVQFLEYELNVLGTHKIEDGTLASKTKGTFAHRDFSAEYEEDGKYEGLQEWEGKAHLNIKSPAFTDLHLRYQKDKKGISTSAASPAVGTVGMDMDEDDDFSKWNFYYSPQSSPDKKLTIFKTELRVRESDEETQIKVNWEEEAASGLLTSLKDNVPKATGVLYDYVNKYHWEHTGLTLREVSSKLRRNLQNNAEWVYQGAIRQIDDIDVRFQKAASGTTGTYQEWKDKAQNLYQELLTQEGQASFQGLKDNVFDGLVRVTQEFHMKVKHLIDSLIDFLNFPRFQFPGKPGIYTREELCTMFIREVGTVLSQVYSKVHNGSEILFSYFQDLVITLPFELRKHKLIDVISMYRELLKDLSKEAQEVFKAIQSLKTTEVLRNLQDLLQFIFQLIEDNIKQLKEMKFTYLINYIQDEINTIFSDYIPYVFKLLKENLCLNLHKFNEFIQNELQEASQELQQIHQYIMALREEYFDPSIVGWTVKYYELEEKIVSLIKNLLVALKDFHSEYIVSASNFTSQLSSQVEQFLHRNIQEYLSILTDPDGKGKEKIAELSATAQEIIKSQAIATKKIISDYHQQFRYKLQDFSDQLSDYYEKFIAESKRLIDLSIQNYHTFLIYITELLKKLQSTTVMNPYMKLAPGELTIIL
T2 sequence (P04114 28-4563 limits assumed): as above
T1 sequence (P04114 28-4563 limits assumed): as above

## B1
[1]
  binding result: binds
[2]
  binding result: binds
[3]
  binding result: binds

B2: glutathione-S-transferase (GST)-fusion protein containing apoB48R amino acid 223 to 710 (other)
chain: EMEQGVREADAGETEEPGAEGAGKGEEVVVVEKACESTRAWGTWGPGAEPEDWGILGREEARTTPGREEARAILDGEEARTISGGEEAETASGGEEAETASGGEEAGTASGGEEAGISSGGEAGTASGGEEAGTASGGDEAWTTSGKEEADLLGVRQTQYGAVPGERLLEATGKVWVLEEEGDEEREAEVSPFPKQAQVLGTERTEEAAESQTAGREAVGGQEAGESFEGQVDLRGKEAEMRQDLGIRADRAKMEELVQAEEAQEERGSSRDPVAELPSDGEAEGTADLEATPEARPEEELTGEESEAAQTSCGLLGVEWGGLTHSVTKGQGPELMGGAQTPTKQPEEREAGEVELMGVLALSKEEQERSLEAGPRHAGSVKPEASEAFPGAWENRTRKDMERGNTQEDAADGEQREEEETAGGQTLAAEAEGDRESELSEVPEAGGEGLTTQDAGCGTEEGEASVSENQELDGSTGADAGPCPSLGE
notes: Migrates as a dimer on SDS-PAGE; also called apoB48R-GST fusion protein (aa 223-710); not shown: glutathione-S-transferase of the pGEX-5X-3 vector (Pharmacia)
[4]
  binding result: binds

B3: GST fusion protein containing apoB48R amino acid 629-1088 (other)
chain: QEDAADGEQREEEETAGGQTLAAEAEGDRESELSEVPEAGGEGLTTQDAGCGTEEGEASVSENQELDGSTGADAGPCPSLGEAYARETEDEEAEADRTSRRGWRLQAVAVGLPDREDAQTGSVAAGIMGGDVVPHISAAGAGEALEGALGQGWDSKEKEEAAAGEHAGGQEFGLEGSAEEEVTGRGSQVEAFESREGGPWGGRVEAEESAGAEDSCGLDPAGSQTARAEGMGAMVEAGGLLEKWTLLEEEAVGWQEREQREDSEGRCGDYHPEGEAPRLLDAEGLMVTGGRRAEAKETEPESLEHVRGQEEQPTHQAPAEAAPESVGEAETAEAMGSARGGAANSWSEAPLPGSLLDVSVPRSRVHLSRSSSQRRSRPSFRRTPAWEQQEEPPAPNPPEEELSAPEQRPLQLEEPLEPSPLRHDGTPVPARRRPLGHGFGLAHPGMMQELQARLGRPKPQ
notes: not shown: glutathione-S-transferase of the pGEX-5X-3 vector (Pharmacia)
[5]
  binding result: no binding

B4: human receptor-associated protein (RAP) (other, UniProt P30533 35-357, looked up)
chain: YSREKNQPKPSPKRESGEEFRMEKLNQLWEKAQRLHLPPVRLAELHADLKIQERDELAWKKLKLDGLDEDGEKEARLIRNLNVILAKYGLDGKKDARQVTSNSLSGTQEDGLDDPRLEKLWHKAKTSGKFSGEELDKLWREFLHHKEKVHEYNVLLETLSRTEEIHENVISPSDLSDIKGSVLHSRHTELKEKLRSINQGLDRLRRVSHQGYSTEAEFEEPRVIDLWDLAQSANLTDKELEAFREELKHFEAKIEKHNHYQKQLEIAHEKLRHAESVGDGERVSRSREKHALLEGRTKELGYTVKKHLQDLSGRISRARHNEL
[6]
  binding result: no binding

B5: GST fusion protein containing apoB48R amino acid 714-917 (other)
chain: RETEDEEAEADRTSRRGWRLQAVAVGLPDREDAQTGSVAAGIMGGDVVPHISAAGAGEALEGALGQGWDSKEKEEAAAGEHAGGQEFGLEGSAEEEVTGRGSQVEAFESREGGPWGGRVEAEESAGAEDSCGLDPAGSQTARAEGMGAMVEAGGLLEKWTLLEEEAVGWQEREQREDSEGRCGDYHPEGEAPRLLDAEGLMVTG
notes: as for B3
[5]
  binding result: no binding
